Our source for the Kd and IC50 values is patent US20180021430A1 (UNIVERSITAETSKLINIKUM FREIBURG, published 2018).

Experiment [1] addresses T1, recombinant Mac-1 I-domain, human Mac-1 (alpha M) amino residues R115 to S340, soluble His-tag fusion protein (human, UniProt P11215 131-356).
T1 construct: range 115-340; ~28 kDa; also called alphaM I-domain; not shown: C-terminal His-tag from vector pET20b
The experiment is described as follows: solid phase binding assay, one-site binding hyperbola; I-domain on immobilized CD40L, BSA wells subtracted. How it is done:
(§1) Solid phase binding assay. […] A mixture of equal molarities of all peptides served as the positive control in this assay.
(§2) The recombinant Mac-1 I-domain was immobilized in 96-well plates (Nunc) in PBS at 4° C. overnight. […] Binding was quantified by addition of TMB-substrate (Pierce), colorimetric reaction at 450 nm. […] Binding of the recombinant Mac-1 I-domain was quantified by addition of anti-His-Biotin monoclonal antibody (Qiagen), HRP-coupled streptavidin (Pierce) and colorimetric reaction at 450 nm. […] Kd was estimated using a one-site binding hyperbola nonlinear regression model with the Software Prism (Graphpad). […] A mixture of equal molarities of all peptides served as positive control. Absorbance on BSA-coated wells served as negative control and was subtracted.

In experiment [2] the target is T2, recombinant CD40L, TNF homologous region of human CD40L (E108 to L261), produced as c-myc- and His-tag fusion … (human).
T2 construct: also called sCD40L; His-tag-CD40L fusion protein
T2 chain: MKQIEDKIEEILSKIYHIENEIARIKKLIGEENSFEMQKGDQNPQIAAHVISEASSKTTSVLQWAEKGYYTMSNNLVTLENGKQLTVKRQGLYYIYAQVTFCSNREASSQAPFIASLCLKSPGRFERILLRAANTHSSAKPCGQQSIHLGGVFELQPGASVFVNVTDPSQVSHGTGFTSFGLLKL
Description: solid phase competition assay: M7 against binding of CD40L to the immobilized I-domain. How it is done: as §1, §2

T1 sequence (P11215 131-356): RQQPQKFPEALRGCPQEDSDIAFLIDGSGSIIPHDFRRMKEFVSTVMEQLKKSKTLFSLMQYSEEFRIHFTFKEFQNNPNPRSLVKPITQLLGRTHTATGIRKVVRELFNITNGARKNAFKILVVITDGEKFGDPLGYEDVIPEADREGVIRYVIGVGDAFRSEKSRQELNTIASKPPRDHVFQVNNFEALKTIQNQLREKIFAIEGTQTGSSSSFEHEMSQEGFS

B1: CD40L without a His-tag (Provitro) (ligand)
chain: MQKGDQNPQIAAHVISEASSKTTSVLQWAEKGYYTMSNNLVTLENGKQLTVKRQGLYYIYAQVTFCSNREASSQAPFIASLCLKSPGRFERILLRAANTHSSAKPCGQQSIHLGGVFELQPGASVFVNVTDPSQVSHGTGFTSFGLLKL
notes: Bought protein; also called CD40L (Provitro); immobilized CD40L
On to B1, for which, in experiment [1], the Kd (in general, the equilibrium constant for the complex coming apart) was approximately 66 nM.

B2: peptide M7 (EQLKKSKTL) (peptide)
peptide: EQLKKSKTL
notes: linear fragment of the Mac-1 I-domain, E162-L170
As to B2, the IC50 (as a rule, the midpoint of a concentration-inhibition curve) in experiment [2] is approximately 4 µM.
